Source: US20160257946A1

Target: Her2 on the Her2-positive breast cancer cell line SKBR3 (UniProt P04626)
Assay: cell-based or functional assay

trastuzumab-MMAF conjugates (trastuzumab-HC136-MMAF) (antibody)
cytotoxicity (cell killing, Cell Titer-Glo viability) on SKBR3 cells, EC50: 0.043 to 0.071 nM
